Reference: patent US20210246200A1 (UNIVERSIT T Z RICH, published 2021)
Substitutions are numbered along the chain they refer to. Names may count otherwise.

B1: 104348_VH5D98E_VK1D28Q (antibody, human IgG1, kappa, N297A, V domains shown)
VH: EVQLVQSGAEVKKPGESLKISCKGSGYAFTNYLIEWVRQMPGKGLEWMGVINPGSGGTNYNEKFKGQVTISADKSISTAYLQWSSLKASDTAMYYCARWRGEGYYAYFDVWGQGTTVTVSS
VL: AIRLTQSPSSFSASTGDRVTITCKASQSVDYQGDSYMNWYQQKPGKAPKLLIYAASNLESGVPSRFSGSGSGTDFTLTISSLQSEDFATYYCQQSNEDPYTFGGGTKVEIKR
notes: also called Antibody No: 1; parental antibody
B2: 104349 (antibody, V domains shown)
VH: B1 VH with E102D
VL: DIVLTQSPLSLPVTLGQPASISCKASQSVDYDGDSYMNWYQQRPGQSPRLLIYAASNLESGVPDRFSGSGSGTDFTLKISRVEAEDVGVYYCQQSNEDPYTFGGGTKVEIK
notes: VH5/VK2
B3: 104348_VH5D98E_VK1 (antibody, V domains shown)
VH: B1 VH
VL: AIRLTQSPSSFSASTGDRVTITCKASQSVDYDGDSYMNWYQQKPGKAPKLLIYAASNLESGVPSRFSGSGSGTDFTLTISSLQSEDFATYYCQQSNEDPYTFGGGTKVEIK
notes: Human IgG1 Fc domain with the N297A point mutation
B4: 104348_VH5_VK1D28Q (antibody, V domains shown)
VH: B1 VH with E102D
VL: B3 VL with D32Q
notes: as for B3
B5: 104348 (antibody, human IgG1, kappa, N297A, V domains shown)
VH: B1 VH with E102D
VL: B1 VL with Q32D
notes: VH5/VK1, human IgG1 N297A
B6: 104347 (antibody, V domains shown)
VH: QVQLVESGGGVVQPGRSLRLSCAASGYTFSSYLIEWVRQAPGKGLEWVAVINPGSGGTNYADSVKGRFTISADKSKNTAYLQMNSLRAEDTAVYYCARWRGDGYYAYFDVWGQGTTVTVSS
VL: EIVLTQSPATLSVSPGERATLSCRASQSVSYDGDSYMNWYQQKPGQAPRLLIYAASNLASGIPARFSGSGSGTEFTLTISSLQSEDAAVYYCQQSNEDPYTFGGGTKVEIK
notes: VH3s/VK3s
B7: NARA1 (antibody, mouse IgG2a, kappa, V domains shown)
VH: QVQLQQSGAELVRPGTSVKVSCKASGYAFTNYLIEWVKQRPGQGLEWIGVINPGSGGTNYNEKFKGKATLTADKSSSTAYMQLSSLTSDDSAVYFCARWRGDGYYAYFDVWGAGTTVTVSS
VL: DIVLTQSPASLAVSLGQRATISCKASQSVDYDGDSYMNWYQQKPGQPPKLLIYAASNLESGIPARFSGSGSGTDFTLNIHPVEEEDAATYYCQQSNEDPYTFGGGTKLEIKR
notes: Mouse monoclonal anti-human IL-2 antibody, mouse IgG2a; also called anti-IL-2 (NARA1)-mIgG2a; anti-IL-2 (NARA1)-mouse IgG2a
B8: 104343 (antibody, human IgG1, kappa, N297A, V domains shown)
VH: QVQLVQSGAEVKKPGSSVKVSCKASGYAFTNYLIEWVRQAPGQGLEWMGVINPGSGGTNYNEKFKGRVTITADKSTSTAYMELSSLRSEDTAVYYCARWRGDGYYAYFDVWGQGTTVTVSS
VL: DIVLTQSPLSLPVTLGQPASISCKASQSVDYDGDSYMNWYQQRPGQSPRLLIYAASNLESGVPDRFSGSGSGTDFTLKISRVEAEDVGVYYCQQSNEDPYTFGGGTKVEIKR
notes: VH1/VK2, human IgG1 N297A
B9: 104343_VH1_VK2D28Q (antibody, V domains shown)
VH: B8 VH
VL: B2 VL with D32Q
notes: as for B3

Experiments:
[1] = target: T1, Proleukin® (aldesleukin) (human, UniProt P60568 21-153, limits assumed); test: ELISA, coated Proleukin, HEK293F supernatant 1:2
T1 construct: Variant of human wt IL-2 with C145S (C125S on mature IL-2); also called IL-2 (Proleukin®); human IL-2 (Proleukin)
Method: Subsequently, hIL-2 binding efficiency of the antibodies present in the supernatants was determined using ELISA. In brief, ELISA plates (Maxisorp 96-well black microtiter plate) were coated overnight at 4° C. with 100p/well of Proleukin® (5 μg/ml PBS). ELISA plates were washed once with TBST (1×TBS/0.05% Tween 20) using a plate-washer (BioTek). […] After removal of the blocking buffer, plates were washed once with TBST using the plate washer. Supernatants were diluted 1:2 in blocking buffer and 50 μl transferred to the designated well of the ELISA plate. Each sample was present on three ELISA plates. The three plates were incubated at RT under gentle agitation. […] The other two plates were washed either every hour three times with TBST for 4 hours or washed every hour three times for 12 hours before adding the detection antibody. […] Luminescence signal was measured after 5 minutes incubation in the dark. […] All ELISA values are mean values based on two measurements.

[2] = target: T1, Proleukin® (aldesleukin); test: ELISA, coated Proleukin, mean of 3 experiments;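 further: binding of anti-human IL-2 antibodies, tested as an 11-point dilution series for 2 hours, to plate-bound IL-2, detected via streptavidin-HRP with absorbance read at 450 nm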
Method: ELISA plates (Corning) were coated with human IL-2 (Proleukin) at 10 μg/mL in PBS overnight at 4° C. The plates were washed 6 times with PBST, then blocked in 1% BSA/PBST for 2 hours. After blocking and washing, the anti-human IL-2 antibodies were added on the plate in an 11-point dilution series in 1% BSA/PBST and incubated for 2 hours. […] The plates were then washed again and incubated with Streptavidin-Horseradish Peroxidase in 1% BSA/PBS for 45 minutes. After washing, the substrate (R&D Systems) was added into the plates and the enzymatic reaction was stopped after 3 minutes by adding Stop Solution. The plates were read by a microplate reader at 450 nm with a wavelength correction set to 540 nm.

[3] = target: T1, Proleukin® (aldesleukin); test: ELISA, coated Proleukin, serially diluted supernatant
[4] = target: T1, Proleukin® (aldesleukin); test: SET assay (solution equilibration titration, MSD)
Method: A 22 serial 2n dilution of the antigen was prepared in sample buffer. A constant concentration of the antibody was added. […] A volume of 60 μl of each antigen:antibody mix was distributed in duplicates to a 384-well polypropylene microtiter plate (PP MTP). Sample buffer served as negative control and a sample containing no antigen as positive control (Bₘₐₓ). The plate was sealed and incubated overnight (o/n) at room temperature (RT). A 384-well standard MSD array plate was coated o/n with 2 μg/ml of IL-2. After three times washing with washing buffer, the plate was blocked with 50 μl/well blocking buffer for 1 hour at RT. After washing, a volume of 30 μl/well of the antigen:antibody mix was transferred from the PP MTP to the coated MSD plate and incubated for 20 min at RT. After an additional wash step, 30 μl of detection antibody (diluted 1:2000) in sample buffer was added to each well and incubated for 30 min at RT. The MSD plate was washed and 35 μl/well of read buffer was added and incubated for 5 min. ECL signals were measured with the MSD SECTOR Imager 6000.

[5] = target: T2, human IL-2 (wildtype) (human, UniProt P60568 21-153); test: SET assay (solution equilibration titration, MSD)
T2 construct: also called IL-2 (WT); IL-2 wt
T2 sequence (P60568 21-153 limits assumed): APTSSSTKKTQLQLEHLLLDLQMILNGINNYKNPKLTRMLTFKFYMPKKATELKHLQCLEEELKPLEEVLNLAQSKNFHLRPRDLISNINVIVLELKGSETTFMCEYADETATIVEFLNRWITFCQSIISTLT

T1 sequence (P60568 other isoform, or with tags, fused parts or gaps limits assumed): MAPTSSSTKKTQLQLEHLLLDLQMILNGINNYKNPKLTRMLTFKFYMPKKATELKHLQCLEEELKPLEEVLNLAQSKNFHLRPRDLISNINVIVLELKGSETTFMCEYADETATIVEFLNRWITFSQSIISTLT

| Binder | ELISA value (Normal ELISA) [1] [luminescence signal] | ELISA value (wash 3x every hour for 4 HRS) [1] [luminescence signal] | ELISA value (wash 3x every hour for 12 HRS) [1] [luminescence signal] | EC50 [2] [nM] | EC50 [3] [nM] | Kd [4] [nM] | binding result [5] |
| --- | --- | --- | --- | --- | --- | --- | --- |
| B1 | 1180 | 1060 | 717 | 1.18 | 1.04 | 0.272 | – |
| B2 | – | – | – | 0.3 | – | 0.082 | binds |
| B3 | – | – | – | 0.77 | – | 0.206 | – |
| B4 | – | – | – | 0.97 | – | 0.155 | – |
| B5 | – | – | – | 0.3 | – | 0.105 | binds |
| B6 | – | – | – | 39 | – | 10 | binds |
| B7 | – | – | – | 0.3 | – | 0.078 | binds |
| B8 | – | – | – | 0.3 | – | 0.075 | binds |
| B9 | – | – | – | 0.59 | – | 0.069 | – |
